Results as given in publication PMC6719061.

Key:
[1] = molecular target: Lst-ABD, recombinant fusion protein with lysostaphin at the N-terminus and the albumin-binding domain from streptococcal protein G at the C-terminus (not stated | Streptococcus sp.)
[2] = molecular target: Lst-ABD, recombinant fusion protein with lysostaphin at the N-terminus and the albumin-binding domain from streptococcal protein G at the C-terminus (not stated | Streptococcus sp.); experiment: photonic crystal-based biosensor (EVA 2.0); Lst-ABD immobilised covalently by amine coupling (EDC/NHS) on a carboxylate-derivatized photonic crystal chip; albumin in PBST (PBS + 0.02% Tween-20, pH 7.4) pumped through the flow cell, ~5 min association, ~5 min dissociation; RSA 250, 42, 7 and 1.2 µg/mL, BSA 1 mg/mL; heterogeneous binding model with two independent sites, koff1 = koff2 fixed

Substance: rat serum albumin (from UniProt P02770 25-608) (natural protein)
- rate of clearing of S. aureus ATCC 29213 cell suspension (turbidimetry, OD 550 nm) by Lst-ABD in the presence of 100 µg/mL RSA, relative to lysostaphin [1]: 25%
- KD1 (high-affinity site) [2]: 2.3 nM
- KD2 (low-affinity site) [2]: 20 nM
- koff [2]: 5.9e-05 s⁻¹
- kon1 (high-affinity site) [2]: 26000 M⁻¹ s⁻¹
- kon2 (low-affinity site) [2]: 3000 M⁻¹ s⁻¹
